Two molecules from PMC4822050, “Hemi-methylated DNA opens a closed conformation of UHRF1 to facilitate its histone recognition” (Nature Communications, 2016) can be followed below.

One test has as its target hm-DNA (12 bp). As to the kind of experiment: ITC, hm-DNA titrated into UHRF1 domains. The note with it: 18 °C, 12-bp hm-DNA in syringe, named protein in cell, 10 mM HEPES pH 8.0, 100 mM NaCl. It counts as binding. How it is done:
(§1) For competition ITC experiments: the indicated proteins were pre-incubated with competitive peptide, protein or hm-DNA (at 1:2 molar ratio if not specified) for 10 min followed by ITC measurements as described above. Proteins, DNA and peptides were prepared within ITC buffer containing 10 mM HEPES, pH 8.0, 100 mM NaCl. The data were fitted by software Origin 7.0. All ITC results were summarized in Supplementary Table 2 and raw data were shown in Supplementary Fig. 9.
For orientation: Isothermal titration calorimetry measures the heat released or taken up as one component is titrated into another.

A further test deals with FAM-16bp-HM-DNA. As to the kind of experiment: Fluorescence polarization, 16-bp FAM-hm-DNA. It counts as binding. The note with it: FP, DNA length series. As for the experimental part:
(§2) FP measurements were performed at 25 °C on Synergy 4 Microplate Reader (BioTek). The 16-bp and 20-bp FAM-labelled hm-DNA (lower strand: 5′-GTGTCAGXGCATGGCC-3′ and 5′-CCGTGTCAGXGCATGGCCAT-3′, respectively. X=5-methyldeoxycytosine) were used in the FP experiment to test the effect of DNA length on the protein/DNA interaction. All experiments were performed in triplicate. The curves were fitted by GraphPad Prism 5. For salt concentration-dependent FP experiments, the reaction buffer contains 50 mM or 150 mM NaCl, respectively.
(In general: Polarisation of emitted light reports the rotation of a fluorescent probe.)

A further test addresses FAM-20bp-HM-DNA. The test can be described thus: Fluorescence polarization, 20-bp FAM-hm-DNA. It counts as binding. The note with it: FP, DNA length series. As for the experimental part: as §2
Test [1] addresses T1, TTD (residues 134–285) of UHRF1 (Homo sapiens, UniProt Q96T88).
T1 construct: TTD (residues 134–285); GST (N, cleaved yes); made in house; host or cells: E. coli BL21 (DE3)
T1 sequence (Q96T88 134-285): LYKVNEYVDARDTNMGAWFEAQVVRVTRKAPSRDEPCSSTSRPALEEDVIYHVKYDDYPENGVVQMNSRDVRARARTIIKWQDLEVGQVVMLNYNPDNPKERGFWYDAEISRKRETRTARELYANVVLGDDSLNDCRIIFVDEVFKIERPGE
The test can be described thus: ITC, TTD titrated into Spacer variants and other UHRF1 fragments. It counts as binding. The conditions noted are these: TTD in syringe. As for the experimental part:
as §1

The target of the next test is FAM-12bp-HM-DNA. As to the kind of experiment: Fluorescence polarization, 12-bp FAM-hm-DNA. Type of test: binding. The conditions noted are these: for Kd: FP. How it is done:
A 6-carboxy-fluorescein (FAM)-labelled primer, 5′-CCATGCGCTGAC-3′, was annealed to a primer 5′-GTCAGXGCATGG-3′ (X=5-methyldeoxycytosine). The hemi-methylated double-strand DNA was used in both electrophoretic mobility-shift assay and FP assays. […] The samples were subjected to a 10% polyacrylamide gel electrophoresis and run in 0.5 × Tris-borate-EDTA buffer at 100 V for 1 h at 4 °C. The results were visualized on Tanon-5200 Chemiluminescent Imaging System (Tanon Science & Technology Co., Ltd).
as §2

The next test concerns the target RFTS^DNMT1. The test can be described thus: ITC, RFTS of DNMT1 with SRA or SRA-Spacer. It counts as binding. The conditions noted are these: 18 °C, RFTS^DNMT1 with named protein, 10 mM HEPES pH 8.0, 100 mM NaCl. How it is done: as §1
For test [2], the system named is DAPI foci (pericentromeric heterochromatin) in NIH3T3 cells. As to the kind of experiment: Subcellular localization of GFP-tagged UHRF1 in NIH3T3 cells. Type of test: cell-based. The conditions noted are these: GFP-tagged protein transiently overexpressed in NIH3T3 cells, 36 h after transfection; at least 100 cells counted; repeated three times. How it is done: NIH3T3 cells were obtained from the Shanghai Institute of Biochemistry and Cell Biology. Wild type and mutants of UHRF1 were sub-cloned into pEGFP-C1 vector. Transient transfections of NIH3T3 cells were carried out using Lipofectamine 2000 (Invitrogen). The NIH3T3 cells were grown on glass coverslips and harvested in 36 h after transfection. The images were acquired and examined as previously described. Briefly, cells were fixed with 4% paraformaldehyde for 25 min, then washed with PBS three times. Coverslips were mounted with Antifade reagent containing DAPI (Molecular Probes) on slides and examined with a confocal microscopy.

In a further test the test system is H3K9me3 peptide (1–17). As to the kind of experiment: ITC, H3K9me3 peptide (1-17) titrated into UHRF1 proteins. It counts as binding. The note with it: ITC KD ratio. How it is done:
as §1

Where [3] appears, read: 25 °C, 20 min, 20 mM HEPES pH 7.5, 175 mM NaCl, 8% glycerol, 1 mM DTT, triplicate, Fig. 5b and Supplementary Table 4.

B1: SRA–Spacer: human UHRF1 residues 414–674 (protein)
chain: PSNHYGPIPGIPVGTMWRFRVQVSESGVHRPHVAGIHGRSNDGAYSLVLAGGYEDDVDHGNFFTYTGSGGRDLSGNKRTAEQSCDQKLTNTNRALALNCFAPINDQEGAEAKDWRSGKPVRVVRNVKGGKNSKYAPAEGNRYDGIYKVVKYWPEKGKSGFLVWRYLLRRDDDEPGPWTKEGKDRIKKLGLTMQYPEGYLEALANREREKENSKREEEEQQEGGFASPRTGKGKWKRKSAGGGPSRAGSPRRTSKKTKVEPY
modifications: left off: GST, end not stated, cleaved
Take B1: the Kd – broadly, the constant that tells how readily two partners part at equilibrium – at hm-DNA (12 bp) was found to be 1750 nM; on FAM-16bp-HM-DNA, 390 ± 70 nM; at FAM-20bp-HM-DNA, 400 ± 70 nM; on FAM-12bp-HM-DNA (12-bp hm-DNA, 50 mM NaCl), 24 ± 3.7 nM; on FAM-12bp-HM-DNA (12-bp hm-DNA, 150 mM NaCl), 580 ± 98 nM; on FAM-12bp-HM-DNA (setting [3]) it was 490 nM. Besides, the Kd at FAM-12bp-HM-DNA (DNA length series, Supplementary Table 5, 12-bp hm-DNA) stood at 340 ± 90 nM; on FAM-12bp-HM-DNA (values as printed in Fig. 5c (Spacer truncation mapping)), 490 nM; on RFTS^DNMT1, 7090 nM. Besides, the N in test [1] (ITC stoichiometry) is 0.788±0.0108. For the same molecule, the ΔH in test [1] (ITC) is listed as -1.199E4±224.9 cal/mol. This molecule also returned a ΔS in test [1] (ITC) of -13.3 cal/mol/deg.

B2: UHRF1∆627-674: spacer deletion mutant of UHRF1 (residues 627–674 deleted) (protein)
chain: MWIQVRTMDGRQTHTVDSLSRLTKVEELRRKIQELFHVEPGLQRLFYRGKQMEDGHTLFDYEVRLNDTIQLLVRQSLVLPHSTKERDSELSDTDSGCCLGQSESDKSSTHGEAAAETDSRPADEDMWDETELGLYKVNEYVDARDTNMGAWFEAQVVRVTRKAPSRDEPCSSTSRPALEEDVIYHVKYDDYPENGVVQMNSRDVRARARTIIKWQDLEVGQVVMLNYNPDNPKERGFWYDAEISRKRETRTARELYANVVLGDDSLNDCRIIFVDEVFKIERPGEGSPMVDNPMRRKSGPSCKHCKDDVNRLCRVCACHLCGGRQDPDKQLMCDECDMAFHIYCLDPPLSSVPSEDEWYCPECRNDASEVVLAGERLRESKKKAKMASATSSSQRDWGKGMACVGRTKECTIVPSNHYGPIPGIPVGTMWRFRVQVSESGVHRPHVAGIHGRSNDGAYSLVLAGGYEDDVDHGNFFTYTGSGGRDLSGNKRTAEQSCDQKLTNTNRALALNCFAPINDQEGAEAKDWRSGKPVRVVRNVKGGKNSKYAPAEGNRYDGIYKVVKYWPEKGKSGFLVWRYLLRRDDDEPGPWTKEGKDRIKKLGLTMQYPEGYLEALANREREKENSKSLTAQQSSLIREDKSNAKLWNEVLASLKDRPASGSPFQLFLSKVEETFQCICCQELVFRPITTVCQHNVCKDCLDRSFRAQVFSCPACRYDLGRSYAMQVNQPLQTVLNQLFPGYGNGR
modifications: left off: GST, end not stated, cleaved
On to B2, for which the “percentage of cells showing co-localization with DAPI foci” value in test [2] is given as 22.1%. Further, the “factor of decrease in hm-DNA-binding affinity compared with full-length UHRF1” value in the test on FAM-12bp-HM-DNA (FP KD ratio) is listed as 14. Further, at FAM-12bp-HM-DNA (setting [3]), the Kd is 4940 ± 1090 nM. The “fold higher binding affinity to H3K9me3 peptide than full-length UHRF1” value in the test on H3K9me3 peptide (1–17) is “four”.
